# Experimental data taken from patent publication US20240270828A1 (UAB RESEARCH FOUNDATION, published 2024).
# T1: MERS-CoV S2 (Sino Biological, 40070-V08) (MERS-CoV, UniProt K9N5Q8 726-1296)
# T1 sequence: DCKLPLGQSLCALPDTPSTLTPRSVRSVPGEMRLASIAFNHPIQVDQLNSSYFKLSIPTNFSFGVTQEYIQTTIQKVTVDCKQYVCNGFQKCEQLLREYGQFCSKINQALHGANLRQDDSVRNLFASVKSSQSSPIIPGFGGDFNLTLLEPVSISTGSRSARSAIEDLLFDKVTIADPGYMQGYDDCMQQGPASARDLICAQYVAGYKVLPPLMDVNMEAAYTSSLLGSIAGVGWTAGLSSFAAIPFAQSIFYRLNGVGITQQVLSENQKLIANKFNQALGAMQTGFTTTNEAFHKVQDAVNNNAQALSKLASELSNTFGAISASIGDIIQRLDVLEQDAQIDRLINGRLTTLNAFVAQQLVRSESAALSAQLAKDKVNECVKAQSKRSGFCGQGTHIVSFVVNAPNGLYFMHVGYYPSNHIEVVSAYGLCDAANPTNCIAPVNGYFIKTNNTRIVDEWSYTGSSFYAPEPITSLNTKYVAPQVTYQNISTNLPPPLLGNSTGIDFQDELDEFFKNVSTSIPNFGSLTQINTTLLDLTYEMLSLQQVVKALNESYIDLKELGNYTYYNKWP
# T2: Spike of MERS-CoV on infected Vero E6 cells and live virus (MERS-CoV, UniProt K9N5Q8 18-1353)
# T2 sequence: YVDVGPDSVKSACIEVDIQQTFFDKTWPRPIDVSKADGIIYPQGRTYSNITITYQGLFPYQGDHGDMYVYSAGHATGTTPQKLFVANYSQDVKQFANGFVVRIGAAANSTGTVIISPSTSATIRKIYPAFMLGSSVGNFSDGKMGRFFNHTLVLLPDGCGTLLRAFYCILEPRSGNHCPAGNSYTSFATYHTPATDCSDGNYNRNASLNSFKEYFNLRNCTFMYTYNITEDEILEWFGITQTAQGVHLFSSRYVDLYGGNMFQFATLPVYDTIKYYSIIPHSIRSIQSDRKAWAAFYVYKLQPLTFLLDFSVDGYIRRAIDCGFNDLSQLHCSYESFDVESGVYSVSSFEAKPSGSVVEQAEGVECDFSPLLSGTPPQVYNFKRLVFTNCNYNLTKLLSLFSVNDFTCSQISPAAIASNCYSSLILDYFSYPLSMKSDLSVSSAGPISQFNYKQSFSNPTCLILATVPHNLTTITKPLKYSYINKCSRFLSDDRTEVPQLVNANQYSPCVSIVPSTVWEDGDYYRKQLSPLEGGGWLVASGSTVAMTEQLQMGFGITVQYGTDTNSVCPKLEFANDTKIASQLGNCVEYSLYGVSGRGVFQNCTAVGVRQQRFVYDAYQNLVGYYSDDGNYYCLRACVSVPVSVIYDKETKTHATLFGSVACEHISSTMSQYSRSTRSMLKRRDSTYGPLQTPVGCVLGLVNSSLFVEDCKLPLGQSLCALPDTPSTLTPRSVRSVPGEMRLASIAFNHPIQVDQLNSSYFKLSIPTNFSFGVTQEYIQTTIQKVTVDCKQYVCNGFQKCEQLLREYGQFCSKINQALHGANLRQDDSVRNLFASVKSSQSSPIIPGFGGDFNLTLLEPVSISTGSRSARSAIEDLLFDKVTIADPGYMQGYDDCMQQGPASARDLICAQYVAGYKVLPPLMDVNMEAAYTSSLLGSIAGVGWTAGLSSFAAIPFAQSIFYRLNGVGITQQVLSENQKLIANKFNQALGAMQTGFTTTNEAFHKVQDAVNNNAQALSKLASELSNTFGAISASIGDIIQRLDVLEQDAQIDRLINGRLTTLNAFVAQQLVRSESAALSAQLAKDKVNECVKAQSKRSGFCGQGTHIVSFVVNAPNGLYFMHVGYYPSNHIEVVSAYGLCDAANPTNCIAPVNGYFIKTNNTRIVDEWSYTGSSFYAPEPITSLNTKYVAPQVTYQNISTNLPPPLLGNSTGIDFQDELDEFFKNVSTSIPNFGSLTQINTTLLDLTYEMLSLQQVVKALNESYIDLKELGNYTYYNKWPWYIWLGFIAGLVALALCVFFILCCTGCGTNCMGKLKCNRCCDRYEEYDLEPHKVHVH
# T3: OC43 S2 (40607-V08B1, Sino Biological) (HCoV-OC43, UniProt P36334 759-1297)
# T3 construct: domain: S2
# T3 sequence: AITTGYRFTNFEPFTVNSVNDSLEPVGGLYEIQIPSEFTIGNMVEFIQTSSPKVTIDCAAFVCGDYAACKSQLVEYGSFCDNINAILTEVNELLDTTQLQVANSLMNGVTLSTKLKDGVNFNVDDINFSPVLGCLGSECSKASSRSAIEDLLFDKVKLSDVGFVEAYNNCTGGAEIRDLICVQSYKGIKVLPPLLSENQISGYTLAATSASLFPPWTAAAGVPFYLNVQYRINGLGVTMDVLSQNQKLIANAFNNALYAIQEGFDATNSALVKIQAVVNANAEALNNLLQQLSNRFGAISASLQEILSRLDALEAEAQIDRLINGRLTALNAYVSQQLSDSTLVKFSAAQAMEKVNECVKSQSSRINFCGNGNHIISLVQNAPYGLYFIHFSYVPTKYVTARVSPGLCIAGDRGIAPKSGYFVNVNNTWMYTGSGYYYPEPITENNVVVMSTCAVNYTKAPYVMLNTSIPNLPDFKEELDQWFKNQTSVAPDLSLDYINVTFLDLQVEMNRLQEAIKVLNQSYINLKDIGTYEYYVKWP
# T4: HKU1 S2 (40021-V08B, Sino Biological) (HCoV-HKU1, UniProt Q5MQD0 761-1300)
# T4 construct: domain: S2
# T4 sequence: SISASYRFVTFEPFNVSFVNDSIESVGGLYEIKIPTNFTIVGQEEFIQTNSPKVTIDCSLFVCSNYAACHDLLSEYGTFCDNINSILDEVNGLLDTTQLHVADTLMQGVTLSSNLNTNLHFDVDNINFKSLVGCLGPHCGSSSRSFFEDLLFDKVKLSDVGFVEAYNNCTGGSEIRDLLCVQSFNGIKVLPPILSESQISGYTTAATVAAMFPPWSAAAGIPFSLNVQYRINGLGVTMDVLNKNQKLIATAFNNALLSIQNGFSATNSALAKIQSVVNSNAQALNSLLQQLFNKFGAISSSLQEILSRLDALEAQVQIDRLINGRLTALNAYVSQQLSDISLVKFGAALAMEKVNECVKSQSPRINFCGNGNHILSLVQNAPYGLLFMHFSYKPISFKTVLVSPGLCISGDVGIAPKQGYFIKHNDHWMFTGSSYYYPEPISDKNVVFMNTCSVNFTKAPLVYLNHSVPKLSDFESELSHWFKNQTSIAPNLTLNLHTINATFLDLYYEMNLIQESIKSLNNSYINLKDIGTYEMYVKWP
# B1: S2P6 (antibody, V domains shown)
# VH: EVQLVQSGAEVKKPGASVKVSCKASGYTFTSQYMHWVRQAPGQGLEWIGIINPSGVHTSYAQKFQGRVTLTRDTSTSTLYMELSSLRSEDTAVYYCARGSPKGAFDYWGQGTLVTVSS
# VL: not shown
# B2: 1242C6 (antibody, V domains shown)
# VH: EVQLVQSGAEVKKPGASVKVSCKASGFTFSDYYMHWVRQAPRQGLEWMGLINPSGSGTAYAQNFQGRVTLTRDTSTSTLYMEMGSLTSDDTAVYYCARMDSSGSYDHWGQGTLVTVSS
# VL: DIVMTQSPGTLSLSPGDRATLSCRASQTIRISYLAWYQQKPGQAPRLLVYGPSIRATGIPDRFSASGSGTDFTLTISRLEPEDFAVYYCQHYGSSPPRYTFGQGTKLEIK
# notes: Recombinant human IgG1
# B3: CV3-25 (antibody, V domains shown)
# VH: QVQLVESGAEVKKPGESLKISCKGSGYTFTRYWIGWVRQMPGKGLEWMGIIYPGDSDTRYSPSFQGHVTISADKSISTAYLQWNSLKASDTAMYYCARLPQYCSNGVCQRWFDPWGQGTLVTVSS
# VL: EIVLTQSPSSVSASVGDRVTITCRASQGISSWLAWYQQKPGKAPKLLIYAASSLQSGVPSRFSGSGSGTDFTLTISSLQPEDFATYYCQQGNSFPYTFGQGTNLEIK
# B4: 1213H7 (antibody, V domains shown)
# VH: QVQLQQSGPEVKKPGTSVKVSCRASGFTFSSSAMQWVRQARGQRLEWIGWIVVGSGNANYAQKFQERVTITRDLSTRTAYMELSSLRSEDTAVYYCAAPYCSGGTCLDGFDIWGQGTMVTVSS
# VL: EIVLTQSPGTLSLSPGERATLSCRASQSVSRNYLGWYQQKPGQAPRLLIYGASSRATGIPDRFSGSGSGTDFTLTISRLEPEDFAVYYCQQYGSSPWTFGQGTKVEIK
# Key:
# [1] = target: T1, MERS-CoV S2 (Sino Biological, 40070-V08); test: SPR, as far as told; target printed as MERS-CoV SH
# [2] = target: Spike of live SARS-CoV-2 WT virus (SARS-CoV-2, UniProt P0DTC2 14-1273); test: cell-based or functional assay
# [3] = target: Spike of SARS-CoV (Urbani) on infected Vero E6 cells and live virus (SARS-CoV, UniProt P59594 14-1255); test: immunofluorescence on infected Vero E6 cells, 1 µg/ml
# [4] = target: T2, Spike of MERS-CoV on infected Vero E6 …; test: as above
# [5] = target: T5, SARS-CoV-2 S1 (40591-V08H3, Sino Biological) (SARS-CoV-2, UniProt P0DTC2 16-685); test: ELISA, hmAb at 10 and 1 ug/ml in duplicate; AUC
# T5 construct: domain: S1
# [6] = target: T6, SARS-CoV-2 S2 (40590-V08B, Sino Biological) (SARS-CoV-2, UniProt P0DTC2 686-1213); test: ELISA, hmAb at 10 and 1 ug/ml in duplicate; AUC
# T6 construct: domain: S2
# [7] = target: T7, SARS-CoV-2 S1+S2 (40589-V08B1, Sino Biological) (SARS-CoV-2, UniProt P0DTC2 16-1213); test: ELISA, hmAb at 10 and 1 ug/ml in duplicate; AUC
# [8] = target: T5, SARS-CoV-2 S1 (40591-V08H3, Sino …); test: ELISA on coated protein, anti-human IgG-HRP; AUC of the OD
# [9] = target: T6, SARS-CoV-2 S2 (40590-V08B, Sino …); test: as above
# [10] = target: T7, SARS-CoV-2 S1+S2 (40589-V08B1, Sino …); test: as above
# [11] = target: Spike of live SARS-CoV-2 WT virus (SARS-CoV-2, UniProt P0DTC2 14-1273); test: cell-based or functional assay; remark: listed apart in the source
# [12] = target: SARS-CoV-2 Wuhan-Hu-1 Spike protein (NR-53524 BEI Resources) (SARS-CoV-2, UniProt P0DTC2 16-1213); test: cell-based or functional assay
# [13] = target: T1, MERS-CoV S2 (Sino Biological, 40070-V08); test: ELISA, mAb at 5, 0.5 and 0.05 ug/ml, without and with 8M urea; AUC heat map
# [14] = target: T3, OC43 S2 (40607-V08B1, Sino Biological); test: as above
# [15] = target: T4, HKU1 S2 (40021-V08B, Sino Biological); test: as above
binder,measurement,setting,value
B1,Kd,[1],8.5 nM
B2,"Neutralization IC50 (µg/ml), Live Virus WT",[2],5.68 µg/mL
same,binding result,[3],binds
same,binding result,[4],binds
same,Binding AUC,[5],0.8
same,binding result,[5],no binding (tested: 10 ug/ml)
same,Binding AUC,[6],26.7
same,Binding AUC,[7],25.6
same,Binding AUC,[8],0.8
same,Binding AUC,[9],26.7
same,Binding AUC,[10],25.6
B3,"Neutralization IC50 (µg/ml), Live Virus WT",[11],12.3 µg/mL
B4,"ADCP activity, fold over isotype control",[12],~8 fold
same,binding result,[13],no binding (tested: 5 ug/ml)
same,binding result,[14],no binding (tested: 5 ug/ml)
same,binding result,[15],no binding (tested: 5 ug/ml)
